The target of assay [1] is Mesoplasma florum ribonucleotide reductase protein R2 (MfR2), inactive form with unmodified Tyr126 (Mesoplasma florum). The experiment in a line: crystal structure.
For assay [2], the target named is Mesoplasma florum ribonucleotide reductase protein R2 (MfR2), active form with meta-hydroxylated Tyr126 (DOPA) (Mesoplasma florum). The experiment in a line: crystal structure.

As a reminder, the stoichiometry N is the number of molecules, sites or subunits per partner or assembly. Regarding “Mesoplasma florum ribonucleotide reductase protein R2 (MfR2), inactive form with unmodified Tyr126 (enzyme)”, the stoichiometry N in assay [1] amounted to 2.

Substance “Mesoplasma florum ribonucleotide reductase protein R2 (MfR2), active form with meta-hydroxylated Tyr126 (DOPA) (enzyme)” showed a stoichiometry N in assay [2] of 2.

The record behind these values is paper doi:10.1101/348268.
